# Data: paper PMC2745200 (Biochimie, 2009)
# Molecular target: the molecule itself
# Assay: SEC
protein,measurement,value
"human ω-amidase/Nit2 (nitrilase-like protein 2) (enzyme, UniProt Q9NQR4 1-276, looked up) MTSFRLALIQLQISSIKSDNVTRACSFIREAATQGAKIVSLPECFNSPYGAKYFPEYAEKIPGESTQKLSEVAKECSIYLIGGSIPEEDAGKLYNTCAVFGPDGTLLAKYRKIHLFDIDVPGKITFQESKTLSPGDSFSTFDTPYCRVGLGICYDMRFAELAQIYAQRGCQLLVYPGAFNLTTGPAHWELLQRSRAVDNQVYVATASPARDDKASYVAWGHSTVVNPWGEVLAKAGTEEAIVYSDIDLKKLAEIRQQIPVFRQKRSDLYAVEMKKP",stoichiometry N,2
